Patent US6803203B1, “DNA-PK assay” (Brookhaven Science Associates, priority 1993, dated 2004)
No end group written: not given here.

Columns and labels:
[1] = molecular target: T1, DNA-PK (Homo sapiens, UniProt P78527); assay: Poorer substrate peptides added to (SEQ ID NO: 8) phosphorylation assays; assay type: biochemical; details: peptide up to 250 μM; (SEQ ID NO: 8) at 100 μM
T1 construct: DNA-PK was purified from HeLa cells; endogenous in cells; host or cells: HeLa S3 cells; the endogenous enzyme was purified in house by chromatography

[2] = system: DNA-PK; assay: Phosphorylation of synthetic peptides in crude cell extracts (L 929); assay type: biochemical, mouse; details: peptide 200 μM, 10 min 30° C.
Procedure: To examine cells for DNA-PK content, extracts from HeLa, T98G human glioblastoma, and mouse L 929 cells were prepared by freeze-thaw lysis of cells harvested from five nearly confluent 9-cm-diameter plates as described in Example 1 and by Lees-Miller, et al. J. Biol. Chem., 264:2431-2437 (1989). T98G (ATCC CRL 1690) is a human glioblastoma cell line; L-929 (ATCC CCL 1) was derived from connective tissue of the NCTC 2071 mouse. Based on earlier work with natural protein substrates, it was expected that extracts of HeLa and T98G cells would contain a significant amount of DNA-PK activity while the extracts of mouse L 929 would contain little, if any, DNA-PK activity. Lysates in low-salt buffer were centrifuged at 10,000×g, to give a supernatant fraction (designated S10) and pellets (designated P10). The pellets were washed by resuspension in a high salt buffer (0.5 M KCl, 25 mM N-2-hydroxyethylpiperazine-N′-2-ethanesulfonic acid (HEPES; pH 7.5), 10 mM MgCl2, 1 mM dithiothreitol) and were sonicated. The sonicated suspension was centrifuged at 10,000×g for 10 min to give a second supernatant fraction (designated P10S), which was diluted with buffer lacking KCl to give a volume equal to that of the original supernatant (S10). Protein concentrations, determined using the Bio-Rad dye-binding assay, were as follows: HeLa S10, 3 mg/ml; HeLa P10S, 1 mg/ml; T98G S10, 3.5 mg/ml;,T98G P10S, 1 mg/ml; L-929 S10, 1 mg/ml; and L-929 P10S, 0.3 mg/ml. These extracts were assayed for the ability to phosphorylate (SEQ ID NOS: 11 and 20) with and without added calf thymus DNA.

[3] = molecular target: T1, DNA-PK; assay: DNA-PK activity in extracts of human cell lines; assay type: biochemical; details: for Specific Activity + DNA: + calf thymus DNA 10 μg/ml; for Specific Activity + DNA / Specific Activity − DNA: peptide 0.2 mM; for Specific Activity − DNA: no added DNA
Procedure: (§1) Extracts of additional primate and rodent cells were tested for the presence of DNA-PK activity in accordance with the method of the present invention. The DNA-PK activity was determined using the methods described in Examples 1, 4 and 5 for seven human cell lines, two African green monkey kidney lines, and six rodent cell lines.
(§2) Extracts were prepared essentially as described in Example 10. Cells were lysed by freezing and thawing in hypotonic buffer; soluble (S10) “cytoplasmic” and insoluble in (P10) “nuclear” fractions were made by centrifuging lysates at 10,000×g for 10 min. The insoluble fraction was extracted with buffer containing 0.5 M KCl, which releases any DNA-PK that is bound to DNA. After centrifugation of the salt-washed pellet fraction, which removed the remaining insoluble material, the salt extract (P10S) was diluted and assayed as previously described.
(§3) Protein concentrations, determined using the Bio-Rad dye binding assay, were between 0.3 and 6 mg/ml. Extracts were incubated at 30° C. for 10 min with each peptide at 0.2 mM in the absence of added DNA (−DNA) or with 10 μg/ml calf thymus DNA (+DNA). After incubation the reaction mixtures were acidified with an equal volume of 30% acetic acid and spotted on to Whatman P-81 phosphocellulose paper (Whatman, Inc., Clifton, N.J.). The filters then were washed extensively in 15% acetic acid before the adsorbed radioactivity was quantitated as described in Example 5.
(§4) The amount of phosphate incorporated was calculated from the specific activity of the ATP. The rate of phosphate incorporation into the Ser-Gln-Glu peptide (Table 1) (SEQ ID NO: 11) in the presence of calf thymus DNA was approximately linear throughout the 10 minute reaction incubation period. Parallel assays were performed without added peptide, and these background values were subtracted to produce the activities that are shown in Table 3. Background values varied but, in all cases, were less than 0.2 nmol/min/mg (a few percent of the activity present in human cells). The specific activities were calculated from the total activity in the two fractions divided by the total protein in the two fractions. The percent of total DNA-PK activity in the S10 and P10S fractions was determined with peptide (SEQ ID NO: 11) in the presence of added calf thymus DNA. Extracts without substantial DNA-PK activity were examined for their ability to inhibit purified DNA-PK. Inhibitory activity was not detected.

[4] = system: DNA-PK; assay: DNA-PK activity in extracts of mouse cell lines; assay type: biochemical; details: peptide 0.2 mM; for Specific Activity + DNA: + calf thymus DNA 10 μg/ml; for Specific Activity − DNA: no added DNA
Procedure: as §1, §2, §3, §4

[5] = system: DNA-PK; assay: DNA-PK activity in extracts of rat cells; assay type: biochemical; details: Rat REF, peptide 0.2 mM; for Specific Activity + DNA: + calf thymus DNA 10 μg/ml; for Specific Activity − DNA: no added DNA
Procedure: as §1, §2, §3, §4

[6] = system: DNA-PK; assay: DNA-PK activity in extracts of hamster cell lines; assay type: biochemical, Chinese hamster; details: peptide 0.2 mM; for Specific Activity + DNA: + calf thymus DNA 10 μg/ml; for Specific Activity − DNA: no added DNA
Procedure: as §1, §2, §3, §4

## EPPLSEQAFADLWKK [SEQ ID NO: 20]
[1]
  inhibition of phosphorylation of (SEQ ID NO: 8): None of these peptides significantly inhibited the phosphorylation
[2]; P10S, + calf thymus DNA 10 μg/ml
  PO4 incorporated + DNA: 0.0 nmol/min/ml of extract
[2]; P10S, without DNA
  PO4 incorporated − DNA: 0.0 nmol/min/ml of extract
[2]; S10, + calf thymus DNA 10 μg/ml
  PO4 incorporated + DNA: 0.0 nmol/min/ml of extract
[2]; S10, without DNA
  PO4 incorporated − DNA: 0.0 nmol/min/ml of extract
[3]; Human 293-S, P10S
  Specific Activity + DNA: 0.04 nmol PO4/min/mg protein
  Specific Activity − DNA: 0.0 nmol PO4/min/mg protein
[3]; Human 293-S, S10
  Specific Activity + DNA: 0.01 nmol PO4/min/mg protein
  Specific Activity − DNA: 0.0 nmol PO4/min/mg protein
[3]; Human A549, P10S
  Specific Activity + DNA: 0.01 nmol PO4/min/mg protein
  Specific Activity − DNA: 0.06 nmol PO4/min/mg protein
[3]; Human A549, S10
  Specific Activity + DNA: 0.0 nmol PO4/min/mg protein
  Specific Activity − DNA: 0.02 nmol PO4/min/mg protein
[3]; Human HPB-ALL, P10S
  Specific Activity + DNA: 0.05 nmol PO4/min/mg protein
  Specific Activity − DNA: 0.04 nmol PO4/min/mg protein
[3]; Human HPB-ALL, S10
  Specific Activity + DNA: 0.0 nmol PO4/min/mg protein
  Specific Activity − DNA: 0.04 nmol PO4/min/mg protein
[3]; Human HeLa-JW, P10S
  Specific Activity + DNA: 0.1 nmol PO4/min/mg protein
  Specific Activity − DNA: 0.0 nmol PO4/min/mg protein
[3]; Human HeLa-JW, S10
  Specific Activity + DNA: 0.1 nmol PO4/min/mg protein
  Specific Activity − DNA: 0.0 nmol PO4/min/mg protein
[3]; Human MRC 5, P10S
  Specific Activity + DNA: 0.04 nmol PO4/min/mg protein
  Specific Activity − DNA: 0.02 nmol PO4/min/mg protein
[3]; Human MRC 5, S10
  Specific Activity + DNA: 0.30 nmol PO4/min/mg protein
  Specific Activity − DNA: 0.11 nmol PO4/min/mg protein
[3]; Human Raji, P10S
  Specific Activity + DNA: 0.0 nmol PO4/min/mg protein
  Specific Activity − DNA: 0.0 nmol PO4/min/mg protein
[3]; Human Raji, S10
  Specific Activity + DNA: 0.0 nmol PO4/min/mg protein
  Specific Activity − DNA: 0.08 nmol PO4/min/mg protein
[3]; Human T98G, P10S
  Specific Activity + DNA: 0.0 nmol PO4/min/mg protein
  Specific Activity − DNA: 0.0 nmol PO4/min/mg protein
[3]; Human T98G, S10
  Specific Activity + DNA: 0.01 nmol PO4/min/mg protein
  Specific Activity − DNA: 0.01 nmol PO4/min/mg protein
[3]; all extracts of Example 11, with or without added DNA
  phosphorylation of the peptide by cell extracts (in words): None of the extracts phosphorylated the Ser-Glu-Gln peptide (SEQ ID NO: 20) at a significant rate
[4]; Mouse L-929, P10S
  Specific Activity + DNA: 0.0 nmol PO4/min/mg protein
  Specific Activity − DNA: 0.0 nmol PO4/min/mg protein
[4]; Mouse L-929, S10
  Specific Activity + DNA: 0.0 nmol PO4/min/mg protein
  Specific Activity − DNA: 0.0 nmol PO4/min/mg protein
[4]; Mouse SV-Balb/c, P10S
  Specific Activity + DNA: 0.04 nmol PO4/min/mg protein
  Specific Activity − DNA: 0.0 nmol PO4/min/mg protein
[4]; Mouse SV-Balb/c, S10
  Specific Activity + DNA: 0.06 nmol PO4/min/mg protein
  Specific Activity − DNA: 0.0 nmol PO4/min/mg protein
[5]; P10S
  Specific Activity + DNA: 0.0 nmol PO4/min/mg protein
  Specific Activity − DNA: 0.03 nmol PO4/min/mg protein
[5]; S10
  Specific Activity + DNA: 0.0 nmol PO4/min/mg protein
  Specific Activity − DNA: 0.02 nmol PO4/min/mg protein
[6]; Hamster CHO, P10S
  Specific Activity + DNA: 0.06 nmol PO4/min/mg protein
  Specific Activity − DNA: 0.0 nmol PO4/min/mg protein
[6]; Hamster CHO, S10
  Specific Activity + DNA: 0.01 nmol PO4/min/mg protein
  Specific Activity − DNA: 0.0 nmol PO4/min/mg protein
[6]; Hamster V79, P10S
  Specific Activity + DNA: 0.05 nmol PO4/min/mg protein
  Specific Activity − DNA: 0.05 nmol PO4/min/mg protein
[6]; Hamster V79, S10
  Specific Activity + DNA: 0.0 nmol PO4/min/mg protein
  Specific Activity − DNA: 0.0 nmol PO4/min/mg protein
